Reference: the supplement of paper PMC9170038

System: MS2 coat protein
Test: apparent KD of MS2 coat protein; higher = weaker reporter binding
Settings: Eterna round: R107
Procedure, shortened: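 Apparent KD per design is the median of normalised cluster binding-curve fits. Designed RNA switches transcribed on-chip from Illumina sequencing clusters were titrated with SNAP-549-labelled MS2 coat protein in twofold steps from 0.7 or 1.5 nM to 3 µM, with 0.8–1.5 h down to 10–20 min per step. Buffer: 100 mM Tris-HCl pH 7.5, 80 mM KCl, 4 mM MgCl2, without or with constant ligand.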

[1] = input ligand: theophylline 20 uM
[2] = input ligand: theophylline 2 mM
[3] = input ligand: tryptophan 2.4 mM

Row | Sequence | apparent KD of MS2 coat protein (input ligand: arginine 13.2 mM) | apparent KD of MS2 coat protein [1] | apparent KD of MS2 coat protein [2] | apparent KD of MS2 coat protein (input ligand: none) | apparent KD of MS2 coat protein [3]
1 | CCCUCGUCAACGGCCGCCACUGUGAUUCACUAAGAUAAUAUUGCACAUGAGGAUCACCCAUGUCUCAGGACCGGGUUGGUGUGUC [theeternabot_sameState_MS2_Trp_B_38] | 82 nM | 128 nM | 131 nM | – | –
2 | CCGAACAUGAGGAUCACCCAUGUAUCCGAGCGAGGACCGGUACGGCCGCCACUCGAACUGCACCGGAAAAGGGAAACACCGAUCC [theeternabot_sameState_MS2_Trp_A_9] | 33.4 nM | 95.7 nM | 69.3 nM | – | –
3 | CCGACGAUGACUAUGGGUCAGGAGUGCGCACGAGGACCGGUACGGCCGCCACUCGAGGAGUGGGACAUGAGGAUCACCCAUGUGG [X-TryptA-MS2@65] | 31.5 nM | 73.7 nM | 52.8 nM | 30 nM | 33.6 nM
4 | CCGGAGACCGUGUCAGCGGAAGCAAGAACACGAGGACCGGUACGGCCGCCACUCGAAAGAAGACAUGAGGAUCACCCAUGUCCAU [theeternabot_exclusion_MS2_Trp_A_43] | 10.5 nM | 15.1 nM | 13.8 nM | – | –
5 | CCGUCACAUGAGGAUCACCCAUGUGGUGAUACCAGCAGUCGACCCUGCCCUUGGCAGCACAUUAUCAUAAAAGCAAUCAGCAACG [theeternabot_sameState_MS2_Theo_A_41] | 57 nM | 269 nM | – | – | 135 nM
6 | CCGUUUUAUGGCGACAUAGGGCGGACUGAAGGAGCGGGAUAAAACCCAGGUAGGUCGCAGAGAUCCACAUGAGGAUCACCCAUGU [!0.X] | 35.9 nM | 54.5 nM | 32.8 nM | 38 nM | 35.9 nM
7 | CCUAUGCAGUCGGCCGCCACUGAACAUGAGGAUCACCCAUGUAUAUAAAGAUCCUGAUAUAAUAACAGGACCGGGACUGUAUAGG [Ex Tryptophan B 10] | 39.2 nM | 73.4 nM | 58.1 nM | – | –
8 | CCUCAUGUGACGGCCGCCACUGAAGUGAUCGAAACAUGAGGAUCACCCAUGUUACGAUCAGAGAACAGGACCGGGUCAACAUGGG [Try B SS s1] | 7.46 nM | 13.6 nM | 13.1 nM | 9.32 nM | 9.85 nM
9 | CCUGCGUUUCUUUUCUUUCGCAGGAAUGAUACCAGUAGGGAAACCUACCCUUGGCAGCAUGGGACAUGAGGAUCACCCAUGUUAU [SSThA NP+V+V2 #3] | 167 nM | 243 nM | – | – | 300 nM
10 | CCUGCUACGGGAAACCGUAGCAGGAAUGAUACCAGUAGGAAAGACUACCCUUGGCAGCAUGGGUAACAUGAGGAUCACCCAUGUU [SSThA NP+V+V2 #6 Same Structure] | 70.9 nM | 124 nM | 87.9 nM | 132 nM | 66 nM
11 | CCUGGAUCAGAUCUUAAAGGCGGUUCUGAUACCAGUCUUUUCCGAGACCCUUGGCAGCAGAACACAUGAGGAUCACCCAUGUAAA [theeternabot_exclusion_MS2_Theo_A_11] | 29.1 nM | 59 nM | – | – | 59.7 nM
12 | CCUUAAUAUGGAAGGAGCGCGCUAACAUGAGGAUCACCCAUGUAAAGGGUUUUAGGCUUAGCGCAGGUAGGUCGCCGUAAGAACC [#09 Exclusion - Arginine B] | 288 nM | 266 nM | 327 nM | 249 nM | 252 nM
13 | CGAACAAAACUAAAUAAACAACUGGGUGAUACCAGUACAUGUGCGUACCCUUGGCAGCAUCCGGCCACAUGAGGAUCACCCAUGU [Ridiansoer] | 35.4 nM | 98.8 nM | – | – | 40.9 nM
14 | CGAAUACUGAGUGAUACCAGUGAAAGAUAACUGUAUACACAUGAGGAUCACCCAUGUACACACCCUUGGCAGCACACUAGAUCGA [Same State Theophylline B GF 2] | 25.8 nM | 40 nM | – | – | 29.9 nM
15 | CGAUAUAUAGCGGCCGCCACUUACUCAUGAGGUAACAACAUGAGGAUCACCCAUGUUUGAGGAUCAAGGACCGGGCUAUGUAUCG [AstrosSSTryB#14] | 24.9 nM | 32 nM | 29.4 nM | – | –
16 | CGCACAUGAGGAUCACCCAUGUGAGGGCAUCGAGGACCGGUACGGCCGCCACUCGCAGGACAUGAGGAUCACCCAUGUGCCGCCG [SSTA DOUBLE!!! :-D #5] | 22.1 nM | 52.9 nM | 47.2 nM | 34.3 nM | 24.4 nM
17 | CGCACAUGAGGAUCACCCAUGUGAGGGCGACGAGGACCGGUACGGCCGCCACUCGCAAAACAUGAGGAUCACCCAUGUGCCGCCG [SSTA DOUBLE!!! :-D #3] | 19.7 nM | 42.7 nM | 29.1 nM | 19.3 nM | 20.3 nM
18 | CGCACAUGAGGAUCACCCAUGUGAGGGUACCGAGGACCGGUACGGCCGCCACUCGCAGGACAUGAGGAUCACCCAUGUGCCGCCG [SSTA DOUBLE!!! :-D #6] | 24.3 nM | 41.9 nM | 44.5 nM | 38.3 nM | 31 nM
